Laboratory results taken from patent US11142752B2, “Pullulanase mutant” (Jiangnan University, priority 2018, dated 2021).

Legend:
[1] = test system: pullulanase of Bacillus halotolerans; assay: Inhibitory effect of cyclodextrin on pullulanase enzyme activity (DNS method, pullulan substrate); format: biochemical
Source text: (§1) 2. Measurement of Enzyme Activity of the Pullulanase:
(§2) A 3,5-dinitrosalicylic acid (DNS) method is adopted. The pullulanase catalyzes the hydrolysis of pullulan to produce reducing sugar under certain conditions, 3,5-dinitrosalicylic acid and the reducing sugar are reduced under thermal conditions to produce a brown-red amino complex, the color depth is directly proportional to the amount of the reducing sugar within a certain range, and the measurement can be performed at the wavelength of 540 nm so as to calculate the enzyme activity. Enzyme activity unit definition: the amount of the enzyme that catalyzes the production of the reducing sugar equivalent to 1 μmol of glucose reducing power per minute is defined as one activity unit.
(§3) 3. Measurement of the Enzyme Activity Comprises the Following Steps:
(§4) A. preheating: putting 1 mL of a 1% pullulan solution of which the pH value is 6.0 and 0.1 mL of a buffer solution of which the pH value is 6.0 in a centrifuge tube, and performing thermal insulation for 10 min on a water bath of 40° C.;
(§5) B. reaction: adding 0.1 mL (10 U) of an enzyme solution, performing shaking and mixing uniformly, performing accurate timing for 30 min, adding 1.5 mL of DNS for stopping reaction, performing treatment in a boiling water bath for 10 min, and performing instant cooling; and
(§6) C. measurement: measuring the light absorption value under the condition of 540 nm, and calculating the activity.
(§7) Reduction of the Inhibitory Effect of Enzyme Activity Characterization:
(§8) A. preheating: putting 1 mL of the 1% pullulan solution of which the pH value is 6.0 and 0.1 mL of 10 mM cyclodextrin in the centrifuge tube, and performing thermal insulation for 10 min on the water bath of 40° C.;
(§9) B. reaction: adding 0.1 mL (10 U) of the enzyme solution, performing shaking and mixing uniformly, performing accurate timing for 30 min, adding 1.5 mL of DNS for stopping reaction, performing treatment in the boiling water bath for 10 min, and performing instant cooling; and
(§10) On the basis, the phenylalanine at the position 481 of the Geobacillus stearothermophilus, the phenylalanine at the position 478 of the [Brevibacterium] halotolerans and the phenylalanine at the position 476 of the […] are mutated, obtained mutants and the mutation effects are shown in the table below. The key amino acid site is applicable to the pullulanase from different sources.

[2] = test system: pullulanase of Geobacillus stearothermophilus; assay: as above; format: biochemical
Source text: as §1, §2, §3, §4, §5, §6, §7, §8, §9, §10

Molecule | Reduction rate of specific enzyme activity in existence of α-CD ([1]; inhibitor α-CD) | Reduction rate of specific enzyme activity in existence of β-CD ([1]; inhibitor β-CD) | Reduction rate of specific enzyme activity in existence of γ-CD ([1]; inhibitor γ-CD) | Reduction rate of specific enzyme activity in existence of α-CD ([2]; inhibitor α-CD) | Reduction rate of specific enzyme activity in existence of β-CD ([2]; inhibitor β-CD) | Reduction rate of specific enzyme activity in existence of γ-CD ([2]; inhibitor γ-CD)
Bacillus halotolerans Wild enzyme: wild pullulanase of Bacillus halotolerans (WP_106020274.1, SEQ ID NO: 26) (protein, bacterial) MVCIQRSFEAYADEMNIITVLIPADQKDTFTPPFQLETDTAEIPLTVSQEWQIEGKYKYVCVAEQPVAFGKTHHVKASGGGKTDLQIGAVVRTDAFDAAFYYDGELGAVYASDYTEFKVWAPAATSAAVKLSHPEKSGYTLQMTRMENGVYAVTVAGDLHGYEYVYRICNNLEWTETVDPYAKAVTVNGEKGVVLRPDQANSAPSFTPFSAPVDAIIYEMHIRDFSIHENSGTKNKGKYAALAETDTKTKNGSSTGLSYLKELGVTHIELLPLNDYAGVDEENPLAAYNWGYNPLHFFAPEGSYSSNPHDPQTRNTEVKQMIHTLHQHGLRVILDVVYNHVYQREHSPFEKTVPGYFFRHDQFGMPSNGTGVGNDIASERRMARKFITDCVMYWLKEYDVDGFRFDLLGILDIETVLHMKEKASEVKSGILLFGEGWDLATPLPPEQKATLANASKMPGVGFFNDSFRDAVKGNTFHIAAAGFALGNGEKTETVMHGIAGSSGWKETAPLVSAPSQSINYVESHDNHTFWDKMSLALPQESESRKRSRQKLASAIILLAQGVPFIHSGQEFFRTKQGVENSYQSSDSINQLDWSRRETFKQDVDYVRRLISLRKAHPAFRLTSSADIQRCLECLALKEHLIVYRLFNLGAIDEWEEIIVIHHASPDSVTWQLPKDKAYRLLCDTDGFRADHGEIKKAVAVNGIGTVILYLARDLTSFA | 17.2% | 35.9% | 6.7% |  |  | 
Geobacillus stearothermophilus Wild enzyme: wild pullulanase of Geobacillus stearothermophilus (KZE96788.1, SEQ ID NO: 20) (protein, bacterial) MLHISRTFAAYLDEIDQITVIVPKARCLDNMEPFVMTAPSGEDIPLVVQQKEDLGDAVKYVCRFSVPFQIGETHWIRARSGEESDVQIGAVVRTAAFDDQFFYDGKLGVEYAKEQTIFRVWAPTATAVSVKLVHPDHGDVRYVPLVRGERGVWSVAVSGDWERARYMYVACINRVWREAVDPYATAVSVNGEHGVIVDWEKTKLAKPAPPLPPCPSPTDAVIYELSIRDFTSHPDSGAVWKGKYLGLTEEHTRGPNGTVTGLSYLKELGVTHVQLMPFADFAGVDERDPQAAYNWGYNPLHLYAPEGSYATDPHDPYARIVELKQAIRALQENGLRVVMDAVYNHVYDREQSPLENLVPGYYFRYDAYGRPANGTGVGNDIASERRMARRWIVDSVVFWAKEYGINGFRFDLMGVHDIETMKSVRDALDAIDPSILVYGEGWDLPTPLAPEQKATMANAKRLPRLAYFNDRFRDAVKGSTFYLPDRGFALGDSAGREQVKTAIAGSLQAFGGLFCHPLQSINYVECHDNHTFWDKMEAANGHEPEWLRRKRQKLATAIVLLAQGIPFLHSGQEFYRTKGGDENSYRSPDAVNRLDWERKSRYEDDVRYIQGLIAIRRAHGAFRLATEVDVQRHLTFLEPIPPSVIAYWLRDVALYGLWTDIVVIHHNEETGVVIALPDDGEWHVVCDGERSGTVPLRQVRRFLDADGIGTWVLVKTGAAADVENGK |  |  |  | 16.9% | 51.2% | 7.7%
